In patent publication US20170052184A1:

How the values were obtained:
[1] = target: HCV Core1-169 recombinant antigen (hepatitis C virus (HCV-1)) (UniProt P26664); assay: sandwich EIA, 25 ng/ml core1-169; capture mAb 208A-557
[2] = target: HCV Core1-169 recombinant antigen (hepatitis C virus (HCV-1)) (UniProt P26664); assay: sandwich EIA, 25 ng/ml core1-169; capture mAb 208A-207-271
[3] = target: HCV Core1-169 recombinant antigen (hepatitis C virus (HCV-1)) (UniProt P26664); assay: sandwich EIA, 25 ng/ml core1-169; capture mAb 208B-741
[4] = target: HCV Core1-169 recombinant antigen (hepatitis C virus (HCV-1)) (UniProt P26664); assay: sandwich EIA, 25 ng/ml core1-169; capture mAb 208B-1096
[5] = target: HCV Core1-169 recombinant antigen (hepatitis C virus (HCV-1)) (UniProt P26664); assay: sandwich EIA, 25 ng/ml core1-169; capture mAb C11-7
[6] = target: HCV Core1-169 recombinant antigen (hepatitis C virus (HCV-1)) (UniProt P26664); assay: sandwich EIA, 25 ng/ml core1-169; capture mAb 208B-612-226
[7] = target: HCV Core1-169 recombinant antigen (hepatitis C virus (HCV-1)) (UniProt P26664); assay: sandwich EIA, 25 ng/ml core1-169; capture NC capture mAb
[8] = target: HCV Core1-169 recombinant antigen (hepatitis C virus (HCV-1)) (UniProt P26664); assay: sandwich EIA, 25 ng/ml core1-169; capture mAb 208A-692
[9] = target: HCV Core1-169 recombinant antigen (hepatitis C virus (HCV-1)) (UniProt P26664); assay: sandwich EIA, 25 ng/ml core1-169; capture mAb 208A-110
[10] = target: HCV Core1-169 recombinant antigen (hepatitis C virus (HCV-1)) (UniProt P26664); assay: sandwich EIA, 25 ng/ml core1-169; capture mAb 208A-293
[11] = target: HCV Core1-169 recombinant antigen (hepatitis C virus (HCV-1)) (UniProt P26664); assay: sandwich EIA, 25 ng/ml core1-169; capture mAb 208B-395-334
[12] = target: HCV Core1-169 recombinant antigen (hepatitis C virus (HCV-1)) (UniProt P26664); assay: sandwich EIA, 25 ng/ml core1-169; capture mAb C11-9
[13] = target: HCV Core Peptide # 55 (aa 109-123) (hepatitis C virus); assay: peptide EIA summary (Table 11), peptide 55, aa 109-123
[14] = target: HCV Core Peptide # 51 (aa 101-115) (hepatitis C virus); assay: EIA on coated peptide 51 (well C7); IgG 2 ug/mL
[15] = target: HCV Core Peptide # 50 (aa 99-113) (hepatitis C virus); assay: peptide EIA summary (Table 11), peptide 50, aa 99-113
[16] = target: HCV Core Peptide # 50 (aa 99-113) (hepatitis C virus); assay: EIA on coated peptide 50 (well B7); IgG 2 ug/mL
[17] = target: HCV Core Peptide # 51 (aa 101-115) (hepatitis C virus); assay: peptide EIA summary (Table 11), peptide 51, aa 101-115
[18] = target: HCV Core Peptide # 53 (aa 105-119) (hepatitis C virus); assay: EIA on coated peptide 53 (well E7); IgG 2 ug/mL
[19] = target: HCV Core Peptide # 48 (aa 95-109) (hepatitis C virus); assay: EIA on coated peptide 48 (well H6); IgG 2 ug/mL
[20] = target: HCV Core Peptide # 52 (aa 103-117) (hepatitis C virus); assay: EIA on coated peptide 52 (well D7); IgG 2 ug/mL
[21] = target: HCV Core Peptide # 49 (aa 97-111) (hepatitis C virus); assay: EIA on coated peptide 49 (well A7); IgG 2 ug/mL
[22] = target: HCV Core Peptide # 55 (aa 109-123) (hepatitis C virus); assay: EIA on coated peptide 55 (well G7); IgG 2 ug/mL
[23] = target: HCV Core Peptide # 52 (aa 103-117) (hepatitis C virus); assay: peptide EIA summary (Table 11), peptide 52, aa 103-117
[24] = target: HCV Core Peptide # 48 (aa 95-109) (hepatitis C virus); assay: peptide EIA summary (Table 11), peptide 48, aa 95-109
[25] = target: HCV Core Peptide # 54 (aa 107-121) (hepatitis C virus); assay: EIA on coated peptide 54 (well F7); IgG 2 ug/mL
[26] = target: HCV Core Peptide # 54 (aa 107-121) (hepatitis C virus); assay: peptide EIA summary (Table 11), peptide 54, aa 107-121
[27] = target: HCV Core Peptide # 53 (aa 105-119) (hepatitis C virus); assay: peptide EIA summary (Table 11), peptide 53, aa 105-119
[28] = target: HCV Core Peptide # 49 (aa 97-111) (hepatitis C virus); assay: peptide EIA summary (Table 11), peptide 49, aa 97-111

HCV Core1-169 recombinant antigen (hepatitis C virus (HCV-1)), sequence (P26664 1-169, tags left off): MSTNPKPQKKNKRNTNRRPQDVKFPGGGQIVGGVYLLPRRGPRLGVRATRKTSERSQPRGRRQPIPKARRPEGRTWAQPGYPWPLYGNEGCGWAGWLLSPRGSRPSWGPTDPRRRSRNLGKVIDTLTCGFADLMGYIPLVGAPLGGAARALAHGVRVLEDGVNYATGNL

| OD492 nm [1] | OD492 nm [2] | OD492 nm [3] | OD492 nm [4] | OD492 nm [5] | OD492 nm [6] | OD492 nm [7] | OD492 nm [8] | OD492 nm [9] | OD492 nm [10] | OD492 nm [11] | OD492 nm [12] | Substance | other results |
| --- | --- | --- | --- | --- | --- | --- | --- | --- | --- | --- | --- | --- | --- |
| 0.18 OD492 | 0.17 OD492 | 0.18 OD492 | 0.21 OD492 | 0.17 OD492 | 0.22 OD492 | 0.18 OD492 | 0.15 OD492 | 0.16 OD492 | 0.23 OD492 | 0.22 OD492 | 0.14 OD492 | negative control (NC) monoclonal antibody | – |
| 1.18 OD492 | 0.44 OD492 | 2.32 OD492 | 0.82 OD492 | 1.91 OD492 | 0.63 OD492 | 0.62 OD492 | 0.58 OD492 | 2.59 OD492 | 1.84 OD492 | 0.95 OD492 | 2.75 OD492 | anti-HCV Core C11-9 monoclonal antibody | – |
| 0.64 OD492 | 0.22 OD492 | 1.76 OD492 | 0.45 OD492 | 0.23 OD492 | 0.53 OD492 | 0.22 OD492 | 0.18 OD492 | 1.78 OD492 | 1.55 OD492 | 0.46 OD492 | 1.04 OD492 | anti-HCV Core C11-7 monoclonal antibody | – |
| – | – | – | – | – | – | – | – | – | – | – | – | C11-3 (ABT-4) monoclonal antibody | OD (A492 nm) [13]: 0.08 OD (A492 nm); OD (A492 nm) [14]: 1 OD; OD (A492 nm) [15]: 1.03 OD (A492 nm); OD (A492 nm) [16]: 0.97 OD; OD (A492 nm) [17]: 1.01 OD (A492 nm); OD (A492 nm) [18]: 0.36 OD; OD (A492 nm) [19]: 0.81 OD; OD (A492 nm) [20]: 0.96 OD; OD (A492 nm) [21]: 0.97 OD; OD (A492 nm) [22]: 0.06 OD; OD (A492 nm) [23]: 1.01 OD (A492 nm); OD (A492 nm) [24]: 0.95 OD (A492 nm); OD (A492 nm) [25]: 0.08 OD; OD (A492 nm) [26]: 0.08 OD (A492 nm); OD (A492 nm) [27]: 0.36 OD (A492 nm); OD (A492 nm) [28]: 1.03 OD (A492 nm) |
